Experimental data: patent US20200138870A1, “RECREATION OF PANCREATIC NICHE ALLOWS FOR NOVEL METHODS FOR HUMAN, MATURE BETA DERIVATION FROM PLURIPOTENT STEM CELLS” (Baylor College of Medicine, priority 2016, published 2020)

B1: Gremlin1: a BMP antagonist upregulated in Wk17.5h and 20.1 M-E primary cells (protein, UniProt O60565 25-184, looked up)
Gremlin-1: KKKGSQGAIPPPDKAQHNDSEQTQSPQQPGSRNRGRGQGRGTAMPGEEVLESSQEALHVTERKYLKRDWCKTQPLKQTIHEEGCNSRTIINRFCYGQCNSFYIPRHIRKEEGSFQSCSFCKPKKFTTMMVTLNCPELQPPTKKKRVTRVKQCRCISIDLD
B2: Endocan: niche-derived secreted factor (R&D), 1 or 5 ng/ml (protein, UniProt Q9NQ30 20-184, looked up)
Endothelial cell-specific …: WSNNYAVDCPQHCDSSECKSSPRCKRTVLDDCGCCRVCAAGRGETCYRTVSGMDGMKCGPGLRCQPSNGEDPFGEEFGICKDCPYGTFGMDCRETCNCQSGICDRGTGKCLKFPFFQYSVTKSSNRFVSLTEHDMASGDGNIVREEVVKENAAGSPVMRKWLNPR
B3: SERPINF1: niche-derived secreted factor (R&D), 500 ng/ml or 1 μg/ml (protein, UniProt P36955 20-418, looked up)
Pigment epithelium-derived …: QNPASPPEEGSPDPDSTGALVEEEDPFFKVPVNKLAAAVSNFGYDLYRVRSSTSPTTNVLLSPLSVATALSALSLGAEQRTESIIHRALYYDLISSPDIHGTYKELLDTVTAPQKNLKSASRIVFEKKLRIKSSFVAPLEKSYGTRPRVLTGNPRLDLQEINNWVQAQMKGKLARSTKEIPDEISILLLGVAHFKGQWVTKFDSRKTSLEDFYLDEERTVRVPMMSDPKAVLRYGLDSDLSCKIAQLPLTGSMSIIFFLPLKVTQNLTLIEESLTSEFIHDIDRELKTVQAVLTVPKLKLSYEGEVTKSLQEMKLQSLFDSPDFSKITGKPIKLTQVEHRAGFEWNEDGAGTTPSPGLQPAHLTFPLDYHLNQPFIFVLRDTDTGALLFIGKILDPRGP
B4: PDPN: podoplanin, a mucin-type transmembrane glycoprotein (protein, UniProt Q86YL7 23-162, looked up)
Podoplanin: ASTGQPEDDTETTGLEGGVAMPGAEDDVVTPGTSEDRYKSGLTTLVATSVNSVTGIRIEDLPTSESTVHAQEQSPSATASNVATSHSTEKVDGDTQTTVEKDGLSTVTLVGIIVGVLLAIGFIGAIIVVVMRKMSGRYSP
B5: WNT5B: a WNT5A paralog (protein, UniProt Q9H1J7 18-359, looked up)
Protein Wnt-5b: QLLTDANSWWSLALNPVQRPEMFIIGAQPVCSQLPGLSPGQRKLCQLYQEHMAYIGEGAKTGIKECQHQFRQRRWNCSTADNASVFGRVMQIGSRETAFTHAVSAAGVVNAISRACREGELSTCGCSRTARPKDLPRDWLWGGCGDNVEYGYRFAKEFVDAREREKNFAKGSEEQGRVLMNLQNNEAGRRAVYKMADVACKCHGVSGSCSLKTCWLQLAEFRKVGDRLKEKYDSAAAMRVTRKGRLELVNSRFTQPTPEDLVYVDPSPDYCLRNESTGSLGTQGRLCNKTSEGMDGCELMCCGRGYNQFKSVQVERCHCKFHWCCFVRCKKCTEIVDQYICK

Tested on: hESC-derived EPs
Assay: Growth factor treatment of hESC-derived EPs for 3 days, immunofluorescence quantification of marker-positive cells
Assay type: cell-based, human
Conditions: for increase in number of ISL1+ cells: high concentration treatment; for INS+ cell numbers (in words): two concentrations
Experimental: hESC, ISL1-EGFP Hues8 and H1, were maintained under a feeder-free system on Geltrex (Invitrogen) in TeSR-E8 media (Stemcell Technologies). Cells were passaged at 70-80% confluence using TrypLE (Invitrogen). After dissociation, cells were seeded in TeSR-E8 media+10 μM Y-27632 for 24h. Differentiation was started when cells were 90% confluent. The following media and growth factors/small molecules (see also Table 3) were used: Day1: MCDB-131 media with 0.1% BSA+10 mM glucose+ActivinA and CHIR99021. Day2-3: MCDB-131 media+0.1% BSA+10 mM glucose+ActivinA. Day4-5: MCDB-131+0.1% BSA, 10 mM glucose, VitC+KGF. Day6-9: MCDB-131 2% BSA+5.5 mM glucose+Vit.C+ITS (Invitrogen)+ActivinA+KGF+RA+SANT-1+Noggin. Day10-12: MCDB-131+2% BSA+5.5 mM glucose+VitC+ITS+SANT-1+Noggin+PdBU. Day13-15: MCDB-131+2% BSA+5.5 mM glucose+VitC+ITS+Noggin+AlK5i. EPs were dissociated and seeded as 25,000 cells/well on Geltrex-coated 96-well plates in DMEM media (Invitrogen) with B27 Supplement (Thermo Fisher Scientific), later called B27 media, supplemented with 10 µM Y-27632 for 24h. Growth factors (Table 3) were added to B27 media, at two concentrations, and tested on EPs for 3 days. After 3 days, cells were PBS washed, fixed with 4% PFA/PBS for 20 min at room temperature (RT), washed twice with PBS and stained.
Cells were incubated with 5% donkey serum (Jackson ImmunoResearch Laboratories) in PBST (PBS+0.1% Triton-X) for 30 min to avoid nonspecific binding of the antibody and to permeabilize the cells. Primary antibodies, diluted in 5% donkey serum in PBST, were then added and incubated at 4° C. overnight with shaking. After primary antibody incubation, cells were washed 3 times with PBST and secondary antibodies conjugated with Alexa-Fluor Dyes (Jackson ImmunoResearch Laboratories) and diluted in 5% donkey serum in PBST were added to the cells for 30 min at RT. Then, cells were thrice washed with PBST and nuclei were stained with Dapi (Roche Diagnostics). For imaging, Leica DMI6000 or confocal Leica TCS SPE was used. Images were initially processed by LAS X software and then further analyzed and quantified using ImageJ software (NIH, W Rasband, http://rsb.info.nih.gov/ij) using cell counter plug-in. Typically, at least 5 randomly selected images were counted per condition.

[1] = 200 ng/ml Gremlin1, 3 days, vs untreated

Row | Molecule | effect on the number of CHGA+ and INS+ cells (in words) (3 days treatment of EPs) | increase in number of ISL1+ cells (3 days) [fold] | numbers of ISL1-eGFP, CHGA+, INS+ and C-peptide+ cells over untreated controls (in words) (3 days treatment of EPs) | further results
1 | THBS2: growth factor (R&D), 5 or 1 μg/ml | little or no effect | ~2 | – | –
2 | HGF: growth factor (R&D), 50 or 100 ng/ml | little or no effect | ~2 | – | –
3 | IGF: growth factor (R&D), 10 or 50 ng/ml | little or no effect | ~2 | – | –
4 | B1 | – | – | – | increase in CHGA+ cell numbers [1]: 5 fold; increase in INS+ cell numbers [1]: 5 fold; decrease in the number of GCG+ cells (3-day EP treatment, vs untreated control): 3 fold
5 | B2 | – | – | increased | number of CHGA+ cells (in words) (3 days treatment of EPs): significant increase; INS+ cell numbers (in words) (3 days treatment of EPs): moderate effect
6 | B3 | – | – | increased | –
7 | B4 | – | – | increased | increase in number of CHGA+ cells (high concentration, 3 days): 3 fold; increase in number of INS+ cells (high concentration, 3 days): 3 fold
8 | B5 | – | – | – | INS+ cell numbers (in words) (3 days treatment of EPs): increased INS+ cell numbers in a dose-dependent manner
